Reference: patent US20220041721A1 (WUHAN YZY BIOPHARMA, published 2022)

Molecular target: T1, monkey CD3 (monkey)
T1 construct: whole, on cells; also called CD3 on monkey CD3 positive T cells
Assay: flow cytometry on monkey CD3 positive T cells

Row | Binder | EC50 [nM]
1 | Y150-F8-8 (bispecific antibody, human IgG1, kappa, Anti-CD38 (Dara) Fab arm and anti-CD3 scFv (VH2a/VL5)-Fc fusion peptide, CH2 SG2) scFv: QVQLVESGGGVVQPGRSLRLSCAASGFTFSTYAMNWVRQAPGKGLEWVARIRSKYNNYATYYADSVKDRFTISRDDSKNTLYLQMNSLRAEDTAVYYCARHGNFGNSYVSWFAYWGQGTLVTVSSGGGGSGGGGSGGGGSQTVVTQEPSLTVSPGGTVTLTCRSSTGAVTTSNYANWVQQKPGQAPRGLIGGTNKRAPGVPARFSGSLLGGKAALTLSGVQPEDEAEYYCALWYSNLWVFGGGTKVEIKGRGRGSDKTHTCPPSPAPPVAGPSVFLFPPKPKDTLMISRTPEVTCVVVDVSHEDPEVQFNWYVDGVEVHNAKTKPREEQFNSTFRVVSVLTVVHQDWLNGKEYKCKVSNKGLPAPIEKTISKTKGQPREPQVCTLPPSRDELTKNQVSLSCAVKGFYPSDIAVEWESNGQPENNYKTTPPVLDSDGSFFLVSKLTVDKSRWQQGNVFSCSVMHEALHNHYTQKSLSLSPGK heavy: EVQLLESGGGLVQPGGSLRLSCAVSGFTFNSFAMSWVRQAPGKGLEWVSAISGSGGGTYYADSVKGRFTISRDNSKNTLYLQMNSLRAEDTAVYFCAKDKILWFGEPVFDYWGQGTLVTVSSASTKGPSVFPLAPSSKSTSGGTAALGCLVKDYFPEPVTVSWNSGALTSGVHTFPAVLQSSGLYSLSSVVTVPSSSLGTQTYICNVNHKPSNTKVDKKVEPKSCDKTHTCPPSPAPPVAGPSVFLFPPKPKDTLMISRTPEVTCVVVDVSHEDPEVQFNWYVDGVEVHNAKTKPREEQFNSTFRVVSVLTVVHQDWLNGKEYKCKVSNKGLPAPIEKTISKTKGQPREPQVYTLPPCRDELTKNQVSLWCLVKGFYPSDIAVEWESNGQPENNYKTTPPVLDSDGSFFLYSKLTVDKSRWQQGNVFSCSVMHEALHNHYTQKSLSLSPGK light: not shown | 159
2 | CT-F3 (bispecific antibody, human IgG1, kappa, Comparative: anti-CD38 (Dara) Fab arm and anti-CD3 scFv (CD3 antibody 1 VH, CD3 antibody 2 VL)-Fc fusion peptide) scFv: EVQLVESGGGLVQPGGSLRLSCAASGFTFSTYAMNWVRQAPGKGLEWVARIRSKYNNYATYYADSVKDRFTISRDDSKNTLYLQMNSLRAEDTAVYYCARHGNFGNSYVSWFAYWGQGTMVTVSSGGGGSGGGGSGGGGSQAVVTQEPSLTVSPGGTVTLTCGSSTGAVTTSNYANWVQQKPGQAPRGLIGGTNKRAPGVPARFSGSLLGGKAALTLSGAQPEDEAEYYCALWYSNLWVFGGGTKLEIKGGGGSDKTHTCPPCPAPEFEGGPSVFLFPPKPKDTLMISRTPEVTCVVVDVSHEDPEVKFNWYVDGVEVHNAKTKPREEQYNSTYRVVSVLTVLHQDWLNGKEYKCKVSNKALPASIEKTISKAKGQPREPQVCTLPPSRDELTKNQVSLSCAVKGFYPSDIAVEWESNGQPENNYKTTPPVLDSDGSFFLVSKLTVDKSRWQQGNVFSCSVMHEALHNHYTQKSLSLSPGK heavy: EVQLLESGGGLVQPGGSLRLSCAVSGFTFNSFAMSWVRQAPGKGLEWVSAISGSGGGTYYADSVKGRFTISRDNSKNTLYLQMNSLRAEDTAVYFCAKDKILWFGEPVFDYWGQGTLVTVSSASTKGPSVFPLAPSSKSTSGGTAALGCLVKDYFPEPVTVSWNSGALTSGVHTFPAVLQSSGLYSLSSVVTVPSSSLGTQTYICNVNHKPSNTKVDKKVEPKSCDKTHTCPPCPAPEFEGGPSVFLFPPKPKDTLMISRTPEVTCVVVDVSHEDPEVKFNWYVDGVEVHNAKTKPREEQYNSTYRVVSVLTVLHQDWLNGKEYKCKVSNKALPASIEKTISKAKGQPREPQVYTLPPCRDELTKNQVSLWCLVKGFYPSDIAVEWESNGQPENNYKTTPPVLDSDGSFFLYSKLTVDKSRWQQGNVFSCSVMHEALHNHYTQKSLSLSPGK light: not shown | 229
3 | Y150-F8-7 (bispecific antibody, human IgG1, kappa, N297A, Anti-CD38 (Dara) Fab arm and anti-CD3 scFv (VH2a/VL5)-Fc fusion peptide, CH2 N297A) scFv: not shown heavy: EVQLLESGGGLVQPGGSLRLSCAVSGFTFNSFAMSWVRQAPGKGLEWVSAISGSGGGTYYADSVKGRFTISRDNSKNTLYLQMNSLRAEDTAVYFCAKDKILWFGEPVFDYWGQGTLVTVSSASTKGPSVFPLAPSSKSTSGGTAALGCLVKDYFPEPVTVSWNSGALTSGVHTFPAVLQSSGLYSLSSVVTVPSSSLGTQTYICNVNHKPSNTKVDKKVEPKSCDKTHTCPPCPAPELLGGPSVFLFPPKPKDTLMISRTPEVTCVVVDVSHEDPEVKFNWYVDGVEVHNAKTKPREEQYASTYRVVSVLTVLHQDWLNGKEYKCKVSNKALPAPIEKTISKAKGQPREPQVYTLPPCRDELTKNQVSLWCLVKGFYPSDIAVEWESNGQPENNYKTTPPVLDSDGSFFLYSKLTVDKSRWQQGNVFSCSVMHEALHNHYTQKSLSLSPGK light: not shown | 142
4 | CT-F1 (bispecific antibody, human IgG1, kappa, Comparative: anti-CD38 (Dara) Fab arm and anti-CD3 scFv (CD3 antibody 1 VH/VL)-Fc fusion peptide) scFv: EVQLVESGGGLVQPGGSLRLSCAASGFTFSTYAMNWVRQAPGKGLEWVARIRSKYNNYATYYADSVKDRFTISRDDSKNTLYLQMNSLRAEDTAVYYCARHGNFGNSYVSWFAYWGQGTMVTVSSGGGGSGGGGSGGGGSQAVVTQEPSLTVSPGGTVTLTCRSSTGAVTTSNYANWVQQKPGQAPRGLIGGTNKRAPGTPARFSGSLLGGKAALTLSGVQPEDEAEYYCALWYSNLWVFGGGTKLTVLGGGGSDKTHTCPPCPAPEFEGGPSVFLFPPKPKDTLMISRTPEVTCVVVDVSHEDPEVKFNWYVDGVEVHNAKTKPREEQYNSTYRVVSVLTVLHQDWLNGKEYKCKVSNKALPASIEKTISKAKGQPREPQVCTLPPSRDELTKNQVSLSCAVKGFYPSDIAVEWESNGQPENNYKTTPPVLDSDGSFFLVSKLTVDKSRWQQGNVFSCSVMHEALHNHYTQKSLSLSPGK heavy: EVQLLESGGGLVQPGGSLRLSCAVSGFTFNSFAMSWVRQAPGKGLEWVSAISGSGGGTYYADSVKGRFTISRDNSKNTLYLQMNSLRAEDTAVYFCAKDKILWFGEPVFDYWGQGTLVTVSSASTKGPSVFPLAPSSKSTSGGTAALGCLVKDYFPEPVTVSWNSGALTSGVHTFPAVLQSSGLYSLSSVVTVPSSSLGTQTYICNVNHKPSNTKVDKKVEPKSCDKTHTCPPCPAPEFEGGPSVFLFPPKPKDTLMISRTPEVTCVVVDVSHEDPEVKFNWYVDGVEVHNAKTKPREEQYNSTYRVVSVLTVLHQDWLNGKEYKCKVSNKALPASIEKTISKAKGQPREPQVYTLPPCRDELTKNQVSLWCLVKGFYPSDIAVEWESNGQPENNYKTTPPVLDSDGSFFLYSKLTVDKSRWQQGNVFSCSVMHEALHNHYTQKSLSLSPGK light: not shown | 347
5 | Y150-F8-5 (bispecific antibody, human IgG1, kappa, also called Y150-8-5) scFv: QVQLVESGGGVVQPGRSLRLSCAASGFTFSTYAMNWVRQAPGKGLEWVARIRSKYNNYATYYADSVKDRFTISRDDSKNTLYLQMNSLRAEDTAVYYCARHGNFGNSYVSWFAYWGQGTLVTVSSGGGGSGGGGSGGGGSQTVVTQEPSLTVSPGGTVTLTCRSSTGAVTTSNYANWVQQKPGQAPRGLIGGTNKRAPGVPARFSGSLLGGKAALTLSGVQPEDEAEYYCALWYSNLWVFGGGTKVEIKGGGGSDKTHTCPPCPAPEFEGGPSVFLFPPKPKDTLMISRTPEVTCVVVDVSHEDPEVKFNWYVDGVEVHNAKTKPREEQYNSTYRVVSVLTVLHQDWLNGKEYKCKVSNKALPASIEKTISKAKGQPREPQVCTLPPSRDELTKNQVSLSCAVKGFYPSDIAVEWESNGQPENNYKTTPPVLDSDGSFFLVSKLTVDKSRWQQGNVFSCSVMHEALHNHYTQKSLSLSPGK heavy: EVQLLESGGGLVQPGGSLRLSCAVSGFTFNSFAMSWVRQAPGKGLEWVSAISGSGGGTYYADSVKGRFTISRDNSKNTLYLQMNSLRAEDTAVYFCAKDKILWFGEPVFDYWGQGTLVTVSSASTKGPSVFPLAPSSKSTSGGTAALGCLVKDYFPEPVTVSWNSGALTSGVHTFPAVLQSSGLYSLSSVVTVPSSSLGTQTYICNVNHKPSNTKVDKKVEPKSCDKTHTCPPCPAPEFEGGPSVFLFPPKPKDTLMISRTPEVTCVVVDVSHEDPEVKFNWYVDGVEVHNAKTKPREEQYNSTYRVVSVLTVLHQDWLNGKEYKCKVSNKALPASIEKTISKAKGQPREPQVYTLPPCRDELTKNQVSLWCLVKGFYPSDIAVEWESNGQPENNYKTTPPVLDSDGSFFLYSKLTVDKSRWQQGNVFSCSVMHEALHNHYTQKSLSLSPGK light: not shown | 291
6 | Y150-F8-6 (bispecific antibody, human IgG1, kappa, also called Y150-8-6) scFv: QVQLVESGGGVVQPGRSLRLSCAASGFTFSTYAMNWVRQAPGKGLEWVARIRSKYNNYATYYADSVKDRFTISRDDSKNTLYLQMNSLRAEDTAVYYCVRHGNFGNSYVSWFAYWGQGTLVTVSSGGGGSGGGGSGGGGSQTVVTQEPSLTVSPGGTVTLTCRSSTGAVTTSNYANWVQQKPGQAPRGLIGGTNKRAPGVPARFSGSLLGGKAALTLSGVQPEDEAEYYCALWYSNLWVFGGGTKVEIKGGGGSDKTHTCPPCPAPEFEGGPSVFLFPPKPKDTLMISRTPEVTCVVVDVSHEDPEVKFNWYVDGVEVHNAKTKPREEQYNSTYRVVSVLTVLHQDWLNGKEYKCKVSNKALPASIEKTISKAKGQPREPQVCTLPPSRDELTKNQVSLSCAVKGFYPSDIAVEWESNGQPENNYKTTPPVLDSDGSFFLVSKLTVDKSRWQQGNVFSCSVMHEALHNHYTQKSLSLSPGK heavy: EVQLLESGGGLVQPGGSLRLSCAVSGFTFNSFAMSWVRQAPGKGLEWVSAISGSGGGTYYADSVKGRFTISRDNSKNTLYLQMNSLRAEDTAVYFCAKDKILWFGEPVFDYWGQGTLVTVSSASTKGPSVFPLAPSSKSTSGGTAALGCLVKDYFPEPVTVSWNSGALTSGVHTFPAVLQSSGLYSLSSVVTVPSSSLGTQTYICNVNHKPSNTKVDKKVEPKSCDKTHTCPPCPAPEFEGGPSVFLFPPKPKDTLMISRTPEVTCVVVDVSHEDPEVKFNWYVDGVEVHNAKTKPREEQYNSTYRVVSVLTVLHQDWLNGKEYKCKVSNKALPASIEKTISKAKGQPREPQVYTLPPCRDELTKNQVSLWCLVKGFYPSDIAVEWESNGQPENNYKTTPPVLDSDGSFFLYSKLTVDKSRWQQGNVFSCSVMHEALHNHYTQKSLSLSPGK light: not shown | 29.2
7 | CT-F2 (bispecific antibody, human IgG1, kappa, Comparative: anti-CD38 (Dara) Fab arm and anti-CD3 scFv (CD3 antibody 2 VH/VL)-Fc fusion peptide) scFv: EVQLVESGGGLVQPGGSLRLSCAASGFTFNTYAMNWVRQAPGKGLEWVGRIRSKYNNYATYYADSVKGRFTISRDDSKNTLYLQMNSLRAEDTAVYYCARHGNFGNSYVSWFAYWGQGTLVTVSSGGGGSGGGGSGGGGSQAVVTQEPSLTVSPGGTVTLTCGSSTGAVTTSNYANWVQQKPGQAPRGLIGGTNKRAPGVPARFSGSLLGGKAALTLSGAQPEDEAEYYCALWYSNLWVFGGGTKLEIKGGGGSDKTHTCPPCPAPEFEGGPSVFLFPPKPKDTLMISRTPEVTCVVVDVSHEDPEVKFNWYVDGVEVHNAKTKPREEQYNSTYRVVSVLTVLHQDWLNGKEYKCKVSNKALPASIEKTISKAKGQPREPQVCTLPPSRDELTKNQVSLSCAVKGFYPSDIAVEWESNGQPENNYKTTPPVLDSDGSFFLVSKLTVDKSRWQQGNVFSCSVMHEALHNHYTQKSLSLSPGK heavy: EVQLLESGGGLVQPGGSLRLSCAVSGFTFNSFAMSWVRQAPGKGLEWVSAISGSGGGTYYADSVKGRFTISRDNSKNTLYLQMNSLRAEDTAVYFCAKDKILWFGEPVFDYWGQGTLVTVSSASTKGPSVFPLAPSSKSTSGGTAALGCLVKDYFPEPVTVSWNSGALTSGVHTFPAVLQSSGLYSLSSVVTVPSSSLGTQTYICNVNHKPSNTKVDKKVEPKSCDKTHTCPPCPAPEFEGGPSVFLFPPKPKDTLMISRTPEVTCVVVDVSHEDPEVKFNWYVDGVEVHNAKTKPREEQYNSTYRVVSVLTVLHQDWLNGKEYKCKVSNKALPASIEKTISKAKGQPREPQVYTLPPCRDELTKNQVSLWCLVKGFYPSDIAVEWESNGQPENNYKTTPPVLDSDGSFFLYSKLTVDKSRWQQGNVFSCSVMHEALHNHYTQKSLSLSPGK light: not shown | 174
